Source: publication PMC3561105, “A Quartet of PIF bHLH Factors Provides a Transcriptionally Centered Signaling Hub That Regulates Seedling Morphogenesis through Differential Expression-Patterning of Shared Target Genes in Arabidopsis”
Residue numbers refer to the chain shown, from its start.

T1: GST-PIF3-Flag (Arabidopsis thaliana, UniProt O80536 1-524)
T1 sequence: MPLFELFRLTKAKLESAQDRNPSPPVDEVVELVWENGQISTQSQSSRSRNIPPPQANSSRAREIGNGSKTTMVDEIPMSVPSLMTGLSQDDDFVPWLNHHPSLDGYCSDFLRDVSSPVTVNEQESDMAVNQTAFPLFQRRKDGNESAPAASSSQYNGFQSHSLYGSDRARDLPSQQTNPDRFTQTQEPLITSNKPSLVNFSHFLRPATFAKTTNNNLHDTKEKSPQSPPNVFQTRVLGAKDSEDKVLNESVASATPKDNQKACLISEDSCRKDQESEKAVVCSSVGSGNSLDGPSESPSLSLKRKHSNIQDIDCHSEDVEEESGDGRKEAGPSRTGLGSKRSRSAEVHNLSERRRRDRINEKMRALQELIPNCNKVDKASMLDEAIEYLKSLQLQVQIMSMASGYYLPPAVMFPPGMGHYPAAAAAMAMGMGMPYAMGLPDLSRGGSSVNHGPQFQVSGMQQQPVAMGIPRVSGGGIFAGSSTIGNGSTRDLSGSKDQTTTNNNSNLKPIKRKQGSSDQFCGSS

B1: PIL1b WT (dsDNA)
DNA 1: ACGCGGCATTCACGTGAAGTGCACGTGAACTTGGCCA
DNA 2: TGGCCAAGTTCACGTGCACTTCACGTGAATGCCGCGT
B2: ATHB-2 (HB2) WT (dsDNA)
DNA 1: GGGTCAGATCCACGTGAAGTTCACATGCTTTCCATGC
DNA 2: GCATGGAAAGCATGTGAACTTCACGTGGATCTGACCC
B3: AT4G30410 (bHLH159) WT (dsDNA)
DNA 1: ATAGGAGAAGCACATGCATGCACATGCTACGAATGG
DNA 2: CCATTCGTAGCATGTGCATGCATGTGCTTCTCCTAT
B4: PHYB WT (dsDNA)
DNA 1: ACCATTAGCCCACGTGATCTTGGGCC
DNA 2: GGCCCAAGATCACGTGGGCTAATGGT
B5: RGA1 WT (dsDNA)
DNA 1: GACCCATTAACACGTGGATCCATCACGTGCTGTCAGTTT
DNA 2: AAACTGACAGCACGTGATGGATCCACGTGTTAATGGGTC
B6: IBH1 WT (dsDNA)
DNA 1: AGGCCATAGCCATGTGCCTTCATGTGGTGGTTGGCC
DNA 2: GGCCAACCACCACATGAAGGCACATGGCTATGGCCT
B7: IAA2 WT (dsDNA)
DNA 1: TGAGGCCGCCCATGTGGACACGACTC
DNA 2: GAGTCGTGTCCACATGGGCGGCCTCA
B8: PIL1b mut2 (1st G-box) (dsDNA)
DNA 1: B1 DNA 1 with T15G
DNA 2: B1 DNA 2 with A23C
B9: PIL1b mut3 (2nd G-box) (dsDNA)
DNA 1: B1 DNA 1 with T26G
DNA 2: B1 DNA 2 with A12C
B10: HB2 mut5 (PBE-box) (dsDNA)
DNA 1: B2 DNA 1 with A23C
DNA 2: B2 DNA 2 with T15G
B11: RGA1 mut3 (2nd G-box) (dsDNA)
DNA 1: B5 DNA 1 with T28G
DNA 2: B5 DNA 2 with A12C
B12: RGA1 mut2 (1st G-box) (dsDNA)
DNA 1: B5 DNA 1 with T15G
DNA 2: B5 DNA 2 with A25C
B13: HB2 mut4 (G-box and PBE-box) (dsDNA)
DNA 1: B2 DNA 1 with T15G, A23C
DNA 2: B2 DNA 2 with T15G, A23C
B14: HB2 mut2 (G-box) (dsDNA)
DNA 1: B2 DNA 1 with T15G
DNA 2: B2 DNA 2 with A23C

Molecular target: T1, GST-PIF3-Flag
Assay: EMSA; DPI-ELISA: TBS-T (20 mM Tris-HCl pH 7.5, 180 mM NaCl, 0.1% Tween 20), 5% milk block, 2 pmol probe/well, 100 ng protein, 1 h, competitor 2/10/50 pmol; EMSA: 100
Conditions: protein: recombinant, tags: N-term GST, chain copies: 2, label: 5' biotin on one strand (probe), blunt

Row | Binder | binding result
1 | B1 | binds
2 | B2 | binds

Molecular target: T1, GST-PIF3-Flag
Assay: DPI-ELISA; DPI-ELISA: TBS-T (20 mM Tris-HCl pH 7.5, 180 mM NaCl, 0.1% Tween 20), 5% milk block, 2 pmol probe/well, 100 ng protein, 1 h, competitor 2/10/50 pmol; EMSA: 100
Conditions: protein: recombinant, tags: N-term GST, chain copies: 2, label: 5' biotin on one strand (probe), blunt

Row | Binder | binding result
3 | B3 | binds
4 | B4 | binds
5 | B5 | binds
6 | B6 | binds
7 | B7 | binds

Molecular target: T1, GST-PIF3-Flag
Assay: competition; EMSA; competes similar to WT; DPI-ELISA: TBS-T (20 mM Tris-HCl pH 7.5, 180 mM NaCl, 0.1% Tween 20), 5% milk block, 2 pmol probe/well, 100 ng protein, 1 h, competitor 2/10/50 pmol; EMSA: 100
Conditions: protein: recombinant, tags: N-term GST, chain copies: 2, blunt

Row | Binder | binding result
8 | B8 | binds
9 | B9 | binds
10 | B10 | binds
11 | B11 | binds
12 | B12 | binds

Molecular target: T1, GST-PIF3-Flag
Assay: competition; EMSA; no competition; DPI-ELISA: TBS-T (20 mM Tris-HCl pH 7.5, 180 mM NaCl, 0.1% Tween 20), 5% milk block, 2 pmol probe/well, 100 ng protein, 1 h, competitor 2/10/50 pmol; EMSA: 100
Conditions: protein: recombinant, tags: N-term GST, chain copies: 2, blunt

Row | Binder | binding result
13 | B13 | no binding
14 | B14 | no binding
